Data on one molecule can be found in patent publication US20110034673A1.

The assay has as its target human HB-EGF on cells (membrane type and cell membrane-bound HB-EGF of human cancer cell lines) (human) (UniProt Q99075). Briefly: cell-based or functional assay.

Chain of human HB-EGF on cells (membrane type and cell membrane-bound HB-EGF of human cancer cell lines) (human) (Q99075 63-148 limits assumed): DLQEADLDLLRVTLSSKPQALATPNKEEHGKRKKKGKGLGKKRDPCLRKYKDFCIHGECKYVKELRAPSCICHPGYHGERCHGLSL

B1: anti-HB-EGF humanized antibody HV0LV0 (antibody, V domains shown)
VH: QVQLVQSGAEVKKPGASVKVSCKASGYTFTTYGITWVRQAPGQGLEWMGEIFPGSGNTYYNEKFKGRVTITADKSTSTAYMELSSLRSEDTAVYYCARESFSDGYYGYFDYWGQGTLVTVSS
VL: DIVMTQSPDSLAVSLGERATINCKSSQSLLYSTNQKNSLAWYQQKPGQPPKLLIYWASTRESGVPDRFSGSGSGTDFTLTISSLQAEDVAVYYCQQYYRYPLTFGQGTKLEIK
For B1, the ADCC activity relative to KM3966 (fold of KM3966) worked out at 0.1.
